“Also recorded” adds a separate entry of the source.

B1: SEQ ID NO:51: fragment of mouse TRPM4, amino acid residues 468-548 (protein, listed as Mus musculus)
chain: SLGHFLTPVRLAQLYSAVSPNSLIRNLLDQASHASSSKSPPVNGTVELRPPNVGQVLRTLLGETCAPRYPARNTRDSYLGQDHRENDSLLMDWANKQPST
B2: SEQ ID NO:53: corresponds to SEQ ID NO:47 but comprises additionally a membrane-anchor (GPI) (protein)
chain: LQAQVERIMTRKELLTVYSSEDGSEEFETIVLRALVKACGSSEASAYLDELRLAVAWNRVDIAQSELFRGDIQWRSFHLEASLMDALLNDRPEFVRLLISHGLSLGHFLTPVRLAQLYSAVSPNSLIRNLLDQASHASSSKSPPVNGTVELRPPNVGQVLRTLLGETCAPRYPARNTRDSYLGQDHRENDSLLMDWANKQPSTDASFEQAPWSDLLIWALLLNRAQMAIYFWEKGSNSVASALGACLLLRVMARLESEAEEAARRKDLAATFESMSVDLFGECYHNSEERAARLLLRRCPLWGEATCLQLAMQADARAFFAQDGVQSLLTQKWWGEMDSTTPLENGGTSLSEKTVLLLVTPFLAAAWSLHP
modifications: GPI membrane anchor; Fusion protein of SEQ ID NO: and SEQ ID NO:57
B3: SEQ ID NO:47: fragment of mouse TRPM4, amino acid residues 347-689 (protein, listed as Mus musculus)
chain: LQAQVERIMTRKELLTVYSSEDGSEEFETIVLRALVKACGSSEASAYLDELRLAVAWNRVDIAQSELFRGDIQWRSFHLEASLMDALLNDRPEFVRLLISHGLSLGHFLTPVRLAQLYSAVSPNSLIRNLLDQASHASSSKSPPVNGTVELRPPNVGQVLRTLLGETCAPRYPARNTRDSYLGQDHRENDSLLMDWANKQPSTDASFEQAPWSDLLIWALLLNRAQMAIYFWEKGSNSVASALGACLLLRVMARLESEAEEAARRKDLAATFESMSVDLFGECYHNSEERAARLLLRRCPLWGEATCLQLAMQADARAFFAQDGVQSLLTQKWWGEMDSTTP
B4: SEQ ID NO:48: fragment of mouse TRPM4, amino acid residues 690-1036 (protein, listed as Mus musculus)
chain: IWALLLAFFCPPLIYTNLIVFRKSEEEPTQKDLDFDMDSSINGAGPPGTVEPSAKVALERRQRRRPGRALCCGKFSKRWSDFWGAPVTAFLGNVVSYLLFLLLFAHVLLVDFQPTKPSVSELLLYFWAFTLLCEELRQGLGGGWGSLASGGRGPDRAPLRHRLHLYLSDTWNQCDLLALTCFLLGVGCRLTPGLFDLGRTVLCLDFMIFTLRLLHIFTVNKQLGPKIVIVSKMMKDVFFFLFFLCVWLVAYGVATEGILRPQDRSLPSILRRVFYRPYLQIFGQIPQEEMDVALMIPGNCSMERGSWAHPEGPVAGSCVSQYANWLVVLLLIVFLLVANILLLNLLI
B5: SEQ ID NO:50: fragment of mouse TRPM4, amino acid residues 347-467 (protein, listed as Mus musculus)
chain: LQAQVERIMTRKELLTVYSSEDGSEEFETIVLRALVKACGSSEASAYLDELRLAVAWNRVDIAQSELFRGDIQWRSFHLEASLMDALLNDRPEFVRLLISHGLSLGHFLTPVRLAQLYSAVS
B6: SEQ ID NO:49: fragment of mouse TRPM4, amino acid residues 1037-1213 (protein, listed as Mus musculus)
chain: AMFSYTFSKVHGNSDLYWKAQRYSLIREFHSRPALAPPLIIISHVRLLIKWLRRCRRCRRANLPASPVFEHFRVCLSKEAERKLLTWESVHKENFLLAQARDKRDSDSERLKRTSQKVDTALKQLGQIREYDRRLRGLEREVQHCSRVLTWMAEALSHSALLPPGAPPPPSPTGSKD
B7: SEQ ID NO:52: fragment of mouse TRPM4, amino acid residues 536-648 (protein, listed as Mus musculus)
chain: SYLGQDHRENDSLLMDWANKQPSTDASFEQAPWSDLLIWALLLNRAQMAIYFWEKGSNSVASALGACLLLRVMARLESEAEEAARRKDLAATFESMSVDLFGECYHNSEERAARLLLRRCPLWG

One data set concerns primary mouse hippocampal neurons. Description: NMDA induced cell death (excitotoxicity) in cultured primary neurons. It counts as cell-based. Particulars: polypeptide expressed via rAAV infection on DIV3; NMDA 20 μM for 10 min; cell death assessed 24 h later. As to the method:
Primary mouse hippocampal and cortical neurons were prepared and maintained as known. Briefly, hippocampi or cerebral cortex from P0 C57Bl/6NCrl mice were dissociated and plated at a density of 1.2*105/cm^2 in Growth Medium (GM), consisting of Neurobasal A medium (Gibco™, 10888022), 2% serum free B27™ Supplement (Gibco™, 17504044), 1% rat serum (Biowest, S2150), 0.5 mM L-Glutamine (Sigma, G7513) and 0.5% P-S. Cytosine β-D-arabinofuranoside (AraC; Sigma, C1768; 2.8 μM) was added on DIV3 to prevent the proliferation of glial cells. From DIV8, half of the medium was replaced by GM without Rat serum every 48 h until being used for experiments. 24 h before experiments, GM was replaced with transfection medium (10 mM HEPES, pH 7.4, 114 mM NaCl, 26.1 mM NaHCO3, 5.3 mM KCl, 1 mM MgCl2, 2 mM CaCl2, 30 mM glucose, 1 mM glycine, 0.5 mM C3H3NaO3, and 0.001% phenol red and 10% of phosphate-free Eagle's minimum essential medium, supplemented with 7.5 µg/ml insulin, 7.5 µg/ml transferrin and 7.5 ng/ml sodium selenite (ITS Liquid Media Supplement, Sigma-Aldrich Cat #I3146)). Primary hippocampal neurons were used in live cell imaging, cell death experiments, while cortical neurons were used for mRNA and protein extraction analysis.
All viral particles were produced and purified as known in the art. All TRPM4 derived peptides (comprising SEQ ID NO:5, or any of SEQ ID NO:46 to SEQ ID NO:56) were cloned into rAAV backbone by PCR. shRNA against mouse TRPM4 were designed by BLOCK-iT™ RNAi Designer from Thermofisher to target: […] (SEQ ID NO:44, shTRPM4-1) and […] (SEQ ID NO:45, shTRPM4-2). Scramble shRNA (shSCR) has been tested and proven to have no known targets in mice. GPI anchor ([…], e.g. used in SEQ ID NO:53) sequences were synthesized by Eurofins Genomics (Ebersberg, Germany). All primers were synthesized and all plasmids were confirmed by sequencing by Eurofins Genomics.
In order to investigate the role of TRPM4 in NMDA receptor mediated excitotoxicity, the inventors used RNA interference strategies to knock down TRPM4. Cultured primary mouse hippocampus neurons were infected on day 3 in vitro (DIV3) with recombinant adeno-associated viruses (rAAVs) providing for expression of a scramble control (shSCR), shTRPM4-1 (SEQ ID NO:44) or shTRPM4-2 (SEQ ID NO:45). On DIV15-16, neurons were challenged with N-methyl-D-aspartate (NMDA, 20 μM) for 10 min. After NMDA wash out, neurons were kept in the culture medium for another 24 h before analysis. […] Evidently, TRPM4 is thus involved in the process of NMDA receptor mediated excitotoxicity.
In a next step, the inventors tried to identify regions in the mouse TRPM4 protein potentially involved in NMDA receptor mediated excitotoxicity. For this purpose, polypeptide fragments of mouse TRPM4 protein were generated and their impact on NMDA induced excitotoxicity analysed. To do so, primary neuron cultures were infected with respective rAAVs on DIV3, challenged with NMDA (20 μM) for 10 min on DIV17 and cell death assessed 24 hours later.
The sequence of SEQ ID NO:5 in TRPM4 is located in vivo just beneath the plasma membrane. […] To test this hypothesis, the inventors created a fusion protein comprising SEQ ID NO:5 and a GPI anchor, SEQ ID NO:57. The sequence of the fusion is given in SEQ ID NO:53. Neurons infected with rAAV and expressing SEQ ID NO:47 (control) or SEQ ID NO:53 were exposed to NMDA (20 μM) for 10 min on DIV15-16, with cell death assessed after 24 h.
In a next step, the inventors created a mutant of SEQ ID NO:5, in which two adjacent phenylalanine residues where substituted by tyrosine residues (SEQ ID NO: 54). […] TRPM5 is a protein related to but nonetheless distinct to TRPM4. The region in TRPM5 corresponding to SEQ ID NO:5, SEQ ID NO:55, shares only about 60% sequence identity with SEQ ID NO:5. Neurons were infected on DIV3 with rAAVs expressing SEQ ID NO: 5, SEQ ID NO: 54 or SEQ ID NO:55 and exposed to NMDA (20 μM) for 10 min on DIV17, with cell death assessed 24 h later. […]
Consider “SEQ ID NO:46: fragment of mouse TRPM4, amino acid residues 1-346”, for which the “protection against NMDA induced cell death (neuroprotective effect)” value (shortened to “protection … (neuroprotective effect)”) is given as “only SEQ ID NO:47 is neuroprotective”.

B1: the “protection … (neuroprotective effect)” value is listed as “only SEQ ID NO:5 is neuroprotective”.

Turning to B2, the “protection … (neuroprotective effect)” value is recorded as “can increase the ability to protect neurons from excitotoxicity; also recorded: increased the protective effects”.

In the case of B3, the “protection … (neuroprotective effect)” value is reported as “contains a neuroprotective element”.

As for B4, the “protection … (neuroprotective effect)” value is recorded as “only SEQ ID NO:47 is neuroprotective”.

With B5, the “protection … (neuroprotective effect)” value is on record as “only SEQ ID NO:5 is neuroprotective”.

On to B6, for which the “protection … (neuroprotective effect)” value is reported as “only SEQ ID NO:47 is neuroprotective”.

B7: the “protection … (neuroprotective effect)” value is “only SEQ ID NO:5 is neuroprotective”.

The data set is the same for the next values; noted with them: rAAV shRNA infection DIV3; NMDA 20 μM 10 min on DIV15-16; analysis 24 h later.
“shTRPM4-2: shRNA against mouse TRPM4 targeting gcatccagagagggttcattc, expressed from rAAV (guide GCAUCCAGAGAGGGUUCAUUC; listed as Mus musculus)”: the “protection from NMDA induced excitotoxicity by knockdown of TRPM4” value is on record as “significantly protected neurons”.

Consider “shTRPM4-1: shRNA against mouse TRPM4 targeting ggacatcgcccaaagtgaact, expressed from rAAV (guide GGACAUCGCCCAAAGUGAACU; listed as Mus musculus)”, for which the “protection from NMDA induced excitotoxicity by knockdown of TRPM4” value is listed as “significantly protected neurons”.
